{
  "source": "patent US20100199363A1",
  "about": "“ENZYMES FOR DEGRADING HERBICIDES” (priority 2006, published 2010)",
  "molecules": {"B1": {"name": "GOX: Glyphosate oxidoreductase producing AMPA and glyoxylate from glyphosate, SEQ ID NO:3 (protein)", "chain": "MSENHKKVGIAGAGIVGVCTALMLQRRGFKVTLIDPNPPGEGASFGNAGCFNGSSVVPMSMPGNLTSVPKWLLDPMGRCQSGSAISNHHAWLIRFLLAGRPNKVKEQAKALRNLIKSTVPLIKSLAEEADASHLIRHEGHLTVYRGEADFAKDRGGWELRRLNGVRTQILSADALRDFDPNLSHAFTKGILIEENGHTINPQGLVTLLFRRFIANGGEFVSARVIGFETEGRALKGITTTNGVLAVDAAVVAAGAHSKSLANSLGDDIPLDTERGYHIVIANPEAAPRIPTTDASGKFIATPMEMGLRVAGTVEFAGLTAAPNWKRAHVLYTHARKLLPALAPASSEERYSKWMGFRPSIPDSLPVIGRATRTPDVIYAFGHGHLGMTGAPMTATLVSELLAGEKTSIDISPFAPNRFGIGKSKQTGPAS", "modifications": "Pseudomonas sp. LBAA"}, "B2": {"name": "GloxA: 473 amino acid glyphosate-degrading putative oxidoreductase from Arthrobacter sp. TBD, SEQ ID NO:1 (protein)", "chain": "VKTTVFERNVPQTAVVSHALAGAAHRPYWIDHLQDSATRYPQLDGDAAADLVIVGGGYTGLWTALRAKERDPGRTVILLEGEQVAWAASGRNGGFCEASLTHGHENGKNRWPDELETLDRLGMENLDRMQEAVEKYAMDCEWERTGELNVAVEPHQVAWLQEDDTPGSVFLDQDAVRAEVNSPTYLAGRWHKDSVAMVHPYKLGLELARVATELGVVIYEGTRVRELNDHEHGVTVVTERGIVEAGHVVLGTNVFPSLLKRNQLMTVPVYDYALMTEPLTAEQLESIGWGKRQGIGDVANQFHYYRITKDHRILFGGYDALYFWGRRVDQKHEHQPATWEKIASHFFTTFPQLEGLKFTHKWAGPIDSSTQFCAFFGTARKGRVAYAAGFTGLGVGATAFAADVLLDLLAGLDTERTRLEMVRKRPLPFPPEPLASLGINLTRWSMDRADHNQGKRNIILKALDAVGLGFDS", "modifications": "Arthrobacter sp. TBD"}},
  "key": {"[1]": {"tested_on": "GloxA", "experiment": "Substrate range of partially purified recombinant GloxA", "format": "biochemical, Arthrobacter sp. TBD", "conditions": "for Removal of substrate, Specific Activity: partially purified recombinant GloxA; for Removal of substrate, Relative Activity: relative to glyphosate = 100", "procedure": "(§1) Crude enzyme extracts from E. coli cells were prepared as follows. Cells were harvested and the cell pellets resuspended in 1 mL lysis buffer (25 mM Tris-Cl pH 7.5 with 1 mgml^−1 lysosyme) and lysed by sonication on ice (Branson sonifier, 60% duty cycle, 30 seconds on, 30 seconds off for ten repeats). The soluble fraction was collected by centrifugation at 5000 g for 5 minutes and the protein content measured using Biorad protein dye-binding assay (BIORAD). Partially purified extracts were prepared by purification of the S-tagged or HIS-tagged GloxA protein from soluble CFE using S-protein agarose (Novagen) the Talon HIS-tag Purification System (BD Biosciences), according to manufacturer's instructions. Partially pure GloxA was eluted from the column using either 3M MgCl2 or 2.5 mM imidazole in the loading buffer. Enzyme reactions were prepared containing 500 μL crude enzyme extract or 250 μL partially purified enzyme extract (˜10 μg protein lysate) in 25 mM Tris-Cl pH7.5, 1 mM FAD, 0.1 mM MgCl2. After preincubation at 37° C. for 2 minutes, 1 mM glyphosate was added to the reaction, which was then incubated with shaking for a further 10-60 minutes. After the required reaction time, reactions were derivatized with tosyl chloride and analysed by HPLC as described above. All enzyme assays were performed in triplicate and repeated at least twice to confirm data. For determination of apparent kinetic parameters, substrate concentrations were varied over a suitable range, and the data fitted to a sum of exponential equations using Kaleidagraph (Synergy Software) or Hyper 1.1 (J. S. Easterby)."}, "[2]": {"conditions": "herbicide glyphosate; Siehl et al. (2005), WO 92/00377; cited from earlier work"}, "[3]": {"conditions": "wildtype GOX, U.S. Pat. No. 5,776,760; cited from earlier work"}, "[4]": {"experiment": "Resting cell biocatalytic assay of cells expressing recombinant GloxA", "format": "cell-based, E. coli", "procedure": "(§2) Detection of glyphosate and AMPA by HPLC analysis was performed using a modified version of the method of Tomita et al. (1991) (Column: C18 4.6 uM, 5 Å column. Mobile Phase: 0.2MK2HPO4, 15% acetonitrile). Analytes were derivatized with tosyl chloride and detected at a wavelength of 240 nm. One ml of reaction supernatant was mixed with 0.5 mL 0.4MNaHPO4 pH 11.0, followed by addition of 200 μL tosyl chloride solution (10 mgmL^−1 p-toluene sulfonylchloride [Sigma] in acetonitrile). After incubation at 50° C. for 5 minutes, 20 μL of filtered reaction product was injected onto the HPLC for analysis.\nThe glyphosate-degrading protein was designated GloxA, and sub-cloning of gloxA into an expression vector and assaying for glyphosate-degrading activity confirmed cells expressing recombinant GloxA were able to degrade glyphosate, with resting cell biocatalytic assays having glyphosate-degrading activity of 300 μmol min^−1 mg wet cell mass^−1, and crude enzyme extracts having an activity of 841 μmolmin^−1mg total protein (Table 2). Of importance is that glycine was not detected as a product at this stage of the analysis of GloxA, and is presumed to have been rapidly metabolized by other enzymes contained within the E. coli resting cells and crude enzyme extract preparation."}, "[5]": {"experiment": "GloxA enzyme assay with crude or partially purified extracts, HPLC after tosyl chloride derivatization", "format": "biochemical", "procedure": "as §2, §1"}, "[6]": {"experiment": "Apparent kinetic parameters of GloxA, glyphosate as substrate", "format": "biochemical", "conditions": "herbicide glyphosate", "procedure": "as §1, with “For determination of apparent kinetic parameters, substrate concentrations were varied over a suitable range, and the data fitted to a sum of exponential equations using Kaleidagraph (Synergy Software) or Hyper 1.1 (J. S. Easterby).” left out"}, "[7]": {"experiment": "Apparent kinetic parameters of GloxA, glufosinate as substrate", "format": "biochemical", "conditions": "herbicide glufosinate", "procedure": "as §1, with “After preincubation at 37° C. for 2 minutes, 1 mM glyphosate was added to the reaction, which was then incubated with shaking for a further 10-60 minutes.” left out, “For determination of apparent kinetic parameters, substrate concentrations were varied over a suitable range, and the data fitted to a sum of exponential equations using Kaleidagraph (Synergy Software) or Hyper 1.1 (J. S. Easterby).” left out"}, "[8]": {"experiment": "Glyphosate degradation by GloxA-like homologous proteins, soluble cell-free extracts", "format": "biochemical", "conditions": "soluble cell-free protein extracts", "excerpt": "Selected putative GloxA-like homologous proteins were then expressed and assayed for glyphosate degradative activity. The nucleotide coding sequences of selected putative homologues were commercially synthesised (Geneart, GmBH), cloned and expressed using the Champion pET200D/TOPO. Expression System (Invitrogen), according to manufacturer's instructions. Recombinant protein expression was verified and quantitated by Coomasie-stained SDS-PAGE analysis and spot-densitometry using AlphaImager 2200 visualization and documentation system (Alpha Innotech).\nEnzymatic assays to assess glyphsate degradation were, performed using soluble cell-free protein extracts (partially purified protein) in a 1 ml volume containing 100 μg total cell-free protein (˜10 μg enzyme extract), 1 mM MgCl2, 1 mM glycine in 20 mM Tris-Cl pH 7.2. Negative controls included cell-free extracts from E. coli BL21 Star both containing no expression vector and containing pET200D/TOPO without an insert."}, "[9]": {"experiment": "Side-by-side assay of GloxA and synthetic GOX extracts, glyphosate", "format": "biochemical", "conditions": "extracts assayed side-by-side, FIG. 4", "procedure": "(§3) Crude enzyme extracts from E. coli cells were prepared as follows. Cells were harvested and the cell pellets resuspended in 1 mL lysis buffer (25 mM Tris-Cl pH 7.5 with 1 mgml^−1 lysosyme) and lysed by sonication on ice (Branson sonifier, 60% duty cycle, 30 seconds on, 30 seconds off for ten repeats). The soluble fraction was collected by centrifugation at 5000 g for 5 minutes and the protein content measured using Biorad protein dye-binding assay (BIORAD). Partially purified extracts were prepared by purification of the S-tagged or HIS-tagged GloxA protein from soluble CFE using S-protein agarose (Novagen) the Talon HIS-tag Purification System (BD Biosciences), according to manufacturer's instructions. […] After the required reaction time, reactions were derivatized with tosyl chloride and analysed by HPLC as described above. […]\n(§4) For the purposes of direct comparison between the enzymes, a synthetic construct was made encoding the GOX gene based on SEQ ID NO:17 from U.S. Pat. No. 5,776,760. […] Soluble protein expression of GOX was optimized under varying temperature and IPTG conditions, and GOX protein expression detected by Coomasie-stained SDS-PAGE analysis and GOX enzymatic activity assayed as described above for GloxA, with HPLC analysis of activity to detect the removal of glyphosate and production of AMPA according to analytical methods above."}, "[10]": {"experiment": "Side-by-side assay of GloxA and synthetic GOX extracts, iminodiacetic acid", "format": "biochemical", "conditions": "extracts assayed side-by-side, FIG. 4", "procedure": "as §3, §4"}, "[11]": {"tested_on": "A. thaliana var. Landsberg", "experiment": "Glyphosate tolerance of Arabidopsis plants expressing GloxA (Tolerance Score)", "format": "in vivo, Arabidopsis thaliana", "conditions": "five times the normal dose (12.5 kga.i.ha^−1), Day 8 post-application of herbicide", "source_text": "FIG. 5. […] To obtain the Tolerance Score, plants were visually assessed for leaf health, plant radius and flowering on Day 8 post-application of herbicide. Untreated controls in perfect health scored 7-8 under the same system.\nT1 seedlings can be transplanted and cultivated for seed through two generations to eventually isolate the homozygous T3 seeds. T2 and T3 plants were then screened for increased resistance to glyphosate, essentially using the methods described by Jander et al. (2003), but with A. thaliana var. Landsberg, not Columbia, and using treatment doses ranging from 2.5-25 kg a.i. ha^−1. The scores given in FIG. 5 are for a dose of 5× the expected I100 dose (12.5 kga.i.ha^−1)"}, "[12]": {"experiment": "GloxA enzyme assay with crude or partially purified extracts, HPLC after tosyl chloride derivatization", "format": "biochemical", "conditions": "for Glyphosate Removal: partially purified GloxA"}},
  "note": "Read-outs that look alike come from different tables or passages of the source.",
  "data": [
    {"molecule": "O=C(O)CNCC(=O)O", "note": "[iminodiacetic acid]", "values": [
      {"measurement": "Removal of substrate, Specific Activity", "setting": "[1]", "value": 5013, "unit": "μmolmin^−1 mg^−1"},
      {"measurement": "Removal of substrate, Relative Activity", "setting": "[1]", "value": 598, "unit": "%"}
    ]},
    {"molecule": "NCP(=O)(O)O", "note": "[AMPA, aminomethylphosphonic acid]", "values": [
      {"measurement": "Removal of substrate, Specific Activity", "setting": "[1]", "value": 602, "unit": "μmolmin^−1 mg^−1"},
      {"measurement": "Removal of substrate, Relative Activity", "setting": "[1]", "value": 71, "unit": "%"}
    ]},
    {"molecule": "O=C(O)CNCP(=O)(O)O", "note": "[glyphosate, N-(phosphonomethyl)glycine]", "values": [
      {"measurement": "Removal of substrate, Specific Activity", "setting": "[1]", "value": 841, "unit": "μmolmin^−1 mg^−1"},
      {"measurement": "Removal of substrate, Relative Activity", "setting": "[1]", "value": 100, "unit": "%"}
    ]},
    {"molecule": "B1", "values": [
      {"measurement": "Kcat", "setting": "[2]", "value": 0.667, "unit": "s⁻¹"},
      {"measurement": "Km", "setting": "[2]", "value": "25000 to 28000", "unit": "µM"},
      {"measurement": "specific activity", "setting": "[3]", "value": 15, "unit": "nmolmin^−mg^−1"}
    ]},
    {"molecule": "B2", "values": [
      {"measurement": "Catalytic Activity, Removal of glyphosate", "setting": "[4]", "value": "300 μmolmin^−1 mg^−1 wet cell mass"},
      {"measurement": "Specific Activity, Removal of glyphosate", "setting": "[5]; Crude enzyme extract, approximate value", "value": 841, "unit": "μmolmin^−1 mg^−1 protein"},
      {"measurement": "glycine as a product", "setting": "[5]; E. coli resting cells and crude enzyme extract preparation", "value": "not detected"},
      {"measurement": "Specific Activity, Production of glycine", "setting": "[5]; PPE + FAD + Mg^2+", "value": 548, "unit": "μmolmin^−1 mg^−1 protein"},
      {"measurement": "production of AMPA from glyphosate", "setting": "[5]; crude extracts and partially purified GloxA", "value": "no production"},
      {"measurement": "Glyphosate Removal", "setting": "[5]; partially purified GloxA, Std (Mg^2+)", "value": 856, "unit": "µmol/min/mg"},
      {"measurement": "Specific Activity, Removal of glyphosate", "setting": "[5]; partially purified enzyme extract, PPE + FAD + Mg^2+", "value": 1590, "unit": "μmolmin^−1 mg^−1 protein"},
      {"measurement": "Kcat", "setting": "[6]", "value": 179.97, "unit": "s⁻¹"},
      {"measurement": "Km", "setting": "[6]", "value": 56, "unit": "µM"},
      {"measurement": "Kcat", "setting": "[7]", "value": 158.9, "unit": "s⁻¹"},
      {"measurement": "Km", "setting": "[7]", "value": 1200, "unit": "µM"},
      {"measurement": "Partially Purified Activity [glyphosate degradation]", "setting": "[8]", "value": 841, "unit": "µmol/min/mg"},
      {"measurement": "specific activity towards glyphosate compared with GOX", "setting": "[9]", "value": "almost two fold higher"},
      {"measurement": "specific activity towards iminodiacetic acid compared with GOX", "setting": "[10]", "value": 0.9, "unit": "times less"},
      {"measurement": "tolerance to glyphosate (Tolerance Score)", "setting": "[11]", "value": "confers tolerance"},
      {"measurement": "Specific Activity, Production of glycine", "setting": "[12]; PPE + FAD − Mg^2+", "value": 413, "unit": "μmolmin^−1 mg^−1 protein"},
      {"measurement": "Specific Activity, Removal of glyphosate", "setting": "[12]; PPE + FAD − Mg^2+", "value": 838, "unit": "μmolmin^−1 mg^−1 protein"},
      {"measurement": "Specific Activity, Production of glycine", "setting": "[12]; PPE − FAD + Mg^2+", "value": 562, "unit": "μmolmin^−1 mg^−1 protein"},
      {"measurement": "Specific Activity, Removal of glyphosate", "setting": "[12]; PPE − FAD + Mg^2+", "value": 1450, "unit": "μmolmin^−1 mg^−1 protein"},
      {"measurement": "Glyphosate Removal", "setting": "[12]; Co^2+", "value": 1076, "unit": "µmol/min/mg"},
      {"measurement": "Glyphosate Removal", "setting": "[12]; No FAD", "value": 520, "unit": "µmol/min/mg"},
      {"measurement": "Glyphosate Removal", "setting": "[12]; No Metals (+EDTA)", "value": 432, "unit": "µmol/min/mg"},
      {"measurement": "Glyphosate Removal", "setting": "[12]; Zn^2+", "value": 624, "unit": "µmol/min/mg"}
    ]}
  ]
}
